Data as given in patent publication US8663642B2, “Anti-CD70 antibody-drug conjugates and their use for the treatment and prevention of cancer and immune disorders” (priority 2003, dated 2014).

Key:
[1] = system: PBMCs stimulated with irradiated allogeneic CESS cells; assay: Mixed lymphocyte reaction (3H-TdR); format: cell-based, human; conditions: MLR
CD70^+ RCC lines [2] = conditions: in 4 of the 7 CD70^+ RCC lines tested
Protocol: (§1) To examine the responses of CD70^+ RCC lines to 1F6 ADCs, cells were seeded between 1,000 to 3,000 cells per well in 100 μl of medium. An additional 100 μl of culture medium containing graded doses of ADCs were added to the wells after cells were allowed to attached overnight. In addition to DNA synthesis, cell viability, as a reflection of the cytotoxic activities of ADCs, was also assayed by the reduction of alamarBlue™ (Biosource International, Camarillo, Calif.). The alamarBlue™ dye was added at a one to four dilution during the last 4 to 24 hours of the incubation. Dye reduction was assessed by fluorescence spectrometry using the excitation and emission wavelengths of 535 nm and 590 nm, respectively. For analysis, the amount of ^3H-TdR incorporated or the extent of alamarBlue™ reduction by the treated cells was compared to that of the untreated control cells.

WSU-NHL cells = assay: 3H-TdR proliferation assay, hematologic lines; format: cell-based, human; conditions: 96 hours, 3H-TdR last 16 hours
Protocol: (§2) FIG. 5: Effects of anti-CD70 ADCs on the proliferation of transformed hematologic cell lines. A subset of the CD70^+ cell lines shown in FIG. 4 and the CD70^− Jurkat cell line were tested for their sensitivity toward 1F6 ADCs. Graded doses of the 1F6-vcMMAE, 1F6-vcAFP, or the corresponding non-binding control IgG (IgG) ADCs were added to cells at the initiation of culture. Cells were exposed to the ADCs continuously for a total of 96 hours. Proliferation was determined by pulsing with ^3H-TdR during the last 16 hours of incubation. The upper panels show the response of the WSU-NHL and Jurkat lines. The lower panel summaries the responses by the tested cell lines to 1F6-vcMMAE and 1F6-vcAFP in form of IC50s.
(§3) A subset of the CD70^+ hematologic lines listed in FIG. 4 was tested for sensitivity to the 1F6 ADCs. These lines were seeded at 5,000 cells per well in 96-well plates in quadruplicates in a total of 200 μl of culture medium containing graded doses of the ADCs as indicated in the FIG. 5 and the accompanying figure legend. Proliferation assays were carried out for 96 hours. Tritiated thymidine (^3H-TdR) incorporation during the last 16 hours of incubation was used to assess DNA synthesis. The responses of a CD70^+ B lymphoma cell line WSU-NHL and the CD70^− Jurkat cells are shown in the upper panels of FIG. 5. […] Proliferation inhibitory effects were apparent when the ADCs were used at concentrations higher than 0.005 μg/ml. […] On the other hand, proliferation of the CD70^− Jurkat acute T leukemia cell line was not affected by either 1F6-vcMMAE or 1F6-vcAFP at concentrations as high as 2 μg/ml. […] The responses of other CD70^+ cell lines tested are summarized in the lower panel of FIG. 5. […] Moreover, EBV-LCLs are phenotypically very similar to activated normal B cells.

CD70^− Jurkat cells = assay: 3H-TdR proliferation assay, hematologic lines; format: cell-based, human; conditions: at concentrations as high as 2 μg/ml
Protocol: as §2, §3

786-O cells [3] = assay: alamarBlue reduction cell viability (cytotoxicity) assay; conditions: 96 hours
Protocol: (§4) 786-O or Caki-1 cells were incubated with graded doses of 1F6-vcAFP or the non-binding control IgG-vcAFP. Cells were incubated for a total of 96 hours. ^3H-thymidine incorporation (upper panel) and reduction of alamarBlue (lower panel) were used to determine proliferation and cell viability, respectively. Data points are expressed as percentages of the untreated control. Error bars represent the standard deviations of values obtained from quadruplicate wells.
as §1

Caki-1 cells [4] = assay: as above; conditions: Caki-1, alamarBlue reduction, 96 hours
Protocol: as §4, §1

786-O cells [5] = assay: 3H-TdR proliferation assay, RCC lines; format: cell-based, human; conditions: 3H-TdR incorporation, 96 hours
Caki-1 cells [6] = assay: 3H-TdR proliferation assay, RCC lines; format: cell-based, human; conditions: Caki-1, 3H-TdR incorporation, 96 hours
CD70^+ RCC lines [7] = assay: 3H-TdR proliferation assay, panel of RCC lines; format: cell-based, human; conditions: CD70^+ RCC lines tested
CD70^− Hs 835.T cells = assay: 3H-TdR proliferation assay, CD70-negative RCC line; format: cell-based, human; conditions: CD70^− Hs 835.T, compared with CD70^+ RCC lines
activated T cell clones = assay: Proliferation of activated T cell clones (3H-TdR); format: cell-based, human

B1: 1F6-vcAFP: anti-CD70 mAb 1F6 linked to auristatin phenylalanine phenylenediamine by the valine-citrulline (vc) dipeptide linker (conjugate)
VH: QIQLVQSGPEVKKPGETVKISCKASGYTFTNYGMNWVKQAPGKGLKWMGWINTYTGEPTYADAFKGRFAFSLETSASTAYLQINNLKNEDTATYFCARDYGDYGMDYWGQGTSVTVSS
VL: DIVLTQSPASLAVSLGQRATISCRASKSVSTSGYSFMHWYQQKPGQPPKLLIYLASNLESGVPARFSGSGSGTDFTLNIHPVEEEDAATYYCQHSREVPWTFGGGTKLEIKR
modifications: non-natural residues
notes: anti-CD70 mAb 1F6 linked to auristatin phenylalanine phenylenediamine by the valine-citrulline (vc) dipeptide linker
[1]
  relative activity: more active than 1F6-vcMMAE
[1]; 5-day culture
  IC50, T cell proliferation: approximately 0.1 μg/ml
  effect on T cell proliferation: substantially inhibited T cell proliferation
CD70^+ RCC lines [2]
  IC50 values to induce cytotoxicity: lower than 20 ng/ml
WSU-NHL cells
  effect on the proliferation of WSU-NHL cells: dose-dependent inhibitory effects
CD70^− Jurkat cells
  effect on proliferation of Jurkat cells: not affected
786-O cells [3]
  concentration at which maximal cytotoxic effects were achieved: lower than 0.1 μg/ml
Caki-1 cells [4]
  concentration at which maximal cytotoxic effects were achieved: lower than 0.1 μg/ml
786-O cells [5]
  concentration at which maximal proliferation inhibitory effects were achieved: lower than 0.1 μg/ml
Caki-1 cells [6]
  concentration at which maximal proliferation inhibitory effects were achieved: lower than 0.1 μg/ml
CD70^+ RCC lines [7]
  IC50 values for proliferation inhibition: 2 to 247 ng/mL
CD70^− Hs 835.T cells
  IC50 values for proliferation inhibition: Substantially higher IC50 values
Activated T cell clones; T cell clones
  relative activity: more active than 1F6-vcVMMAE
Activated T cell clones; all 3 clones
  IC50, proliferation: below 0.05 μg/ml
